Laboratory results from patent US20070258988A1.
Values belong to the substance of their own block, whether it stands above or below them.

Experiments:
[1] = biological target: hMOR-1B2 (human) (UniProt P35372); experiment: competition against [3H]DAMGO (~1 nM), membranes of stable CHO transfectants
[2] = biological target: hMOR-1B1 (human) (UniProt P35372); experiment: as above
[3] = biological target: rMOR-1C1 (rat); experiment: as above
[4] = biological target: rMOR-1D (rat); experiment: as above
[5] = biological target: rMOR-1 (rat) (UniProt P33535); experiment: as above
[6] = biological target: hMOR-1 (human) (UniProt P35372); experiment: as above
[7] = biological target: rMOR-1A (rat); experiment: as above
[8] = biological target: hMOR-1 (exons 1-3) (human) (UniProt P35372); experiment: cell-based or functional assay
[9] = biological target: rMOR-1 (no Exon 4) (rat) (UniProt P33535); experiment: cell-based or functional assay
[10] = biological target: hMOR-1B5 (human) (UniProt P35372); experiment: cell-based or functional assay
[11] = biological target: hMOR-1B1 (human) (UniProt P35372); experiment: cell-based or functional assay
[12] = biological target: rMOR-1C1 (rat); experiment: cell-based or functional assay
[13] = biological target: hMOR-1B4 (human) (UniProt P35372); experiment: cell-based or functional assay
[14] = biological target: rMOR-1D (rat); experiment: cell-based or functional assay
[15] = biological target: rMOR-1 (rat) (UniProt P33535); experiment: cell-based or functional assay
[16] = biological target: hMOR-1A (human); experiment: cell-based or functional assay
[17] = biological target: hMOR-1Y (human) (UniProt P35372); experiment: cell-based or functional assay
[18] = biological target: hMOR-1 (human) (UniProt P35372); experiment: cell-based or functional assay
[19] = biological target: rMOR-1A (rat); experiment: cell-based or functional assay
[20] = biological target: hMOR-1B3 (human) (UniProt P35372); experiment: cell-based or functional assay
[21] = biological target: hMOR-1B2 (human) (UniProt P35372); experiment: cell-based or functional assay
[22] = biological target: rMOR-1 (no Exon 4) (rat) (UniProt P33535); experiment: [3H]DAMGO saturation binding, membranes of stable CHO transfectants
[23] = biological target: rMOR-1C1 (rat); experiment: as above
[24] = biological target: rMOR-1D (rat); experiment: as above
[25] = biological target: rMOR-1 (rat) (UniProt P33535); experiment: as above
[26] = biological target: rMOR-1A (rat); experiment: as above
[27] = biological target: hMOR-1 (exons 1-3) (human) (UniProt P35372); experiment: competition against [3H]DAMGO (~1 nM), membranes of stable CHO transfectants
[28] = biological target: hMOR-1B5 (human) (UniProt P35372); experiment: as above
[29] = biological target: hMOR-1B4 (human) (UniProt P35372); experiment: as above
[30] = biological target: hMOR-1A (human); experiment: as above
[31] = biological target: hMOR-1Y (human) (UniProt P35372); experiment: as above
[32] = biological target: hMOR-1B3 (human) (UniProt P35372); experiment: as above
[33] = biological target: rMOR-1 (no Exon 4) (rat) (UniProt P33535); experiment: as above

Substance: [D-Ala^2,MePhe^4,Gly(ol)^5]enkephalin (DAMGO) (peptide)
- Ki [2]: 1.2 nM
- Ki [3]: 4.5 nM
- Ki [4]: 4.7 nM
- Ki [5]: 3.3 nM
- Ki [6]: 2 nM
- Ki [7]: 6 nM
- Max Inhib (%) [8]: 74%
- EC50 (nM), stimulation of [35S]GTPγS binding [9]: 86 nM
- Max Stim (%) [9]: 196%
- Max Inhib (%) [10]: 83%
- Max Inhib (%) [11]: 57%
- EC50 (nM), stimulation of [35S]GTPγS binding [12]: 4 nM
- Max Stim (%) [12]: 233%
- Max Inhib (%) [13]: 65%
- EC50 (nM), stimulation of [35S]GTPγS binding [14]: 125 nM
- Max Stim (%) [14]: 113%
- EC50 (nM), stimulation of [35S]GTPγS binding [15]: 12 nM
- Max Stim (%) [15]: 233%
- Max Inhib (%) [16]: 82%
- Max Inhib (%) [17]: 91%
- Max Inhib (%) [18]: 76%
- EC50 (nM), stimulation of [35S]GTPγS binding [19]: 13 nM
- Max Stim (%) [19]: 176%
- Max Inhib (%) [20]: 73%
- Max Inhib (%) [21]: 90%
- Kd [22]: 4.5 nM
- Kd [23]: 4.8 nM
- Kd [24]: 4.7 nM
- Kd [25]: 2.8 nM
- Kd [26]: 2.5 nM

Substance: Endomorphin 1 (peptide)
- Max Stim (%) [9]: 189%
- Max Stim (%) [12]: 377%
- EC50 (nM), stimulation of [35S]GTPγS binding [14]: 100 nM
- Max Stim (%) [14]: 145%
- Max Stim (%) [15]: 320%
- Max Stim (%) [19]: 205%

Substance: [D-Ser^2, Leu^5]enkephalin-Thr^6 (DSLET) (peptide)
- Ki [33]: 24.2 nM
- Ki [2]: 13.9 nM
- Ki [3]: 45 nM
- Ki [29]: 22.3 nM
- Ki [4]: 27.3 nM
- Ki [5]: 30.9 nM
- Ki [30]: 19.7 nM
- Ki [31]: 15.4 nM
- Ki [6]: 19.1 nM
- Ki [7]: 44.5 nM
- Ki [32]: 16.4 nM
- Ki [1]: 34.4 nM
- EC50 (nM), stimulation of [35S]GTPγS binding [9]: 690 nM
- Max Stim (%) [9]: 226%
- EC50 (nM), stimulation of [35S]GTPγS binding [12]: 253 nM
- Max Stim (%) [12]: 312%
- EC50 (nM), stimulation of [35S]GTPγS binding [14]: 540 nM
- Max Stim (%) [14]: 187%
- EC50 (nM), stimulation of [35S]GTPγS binding [15]: 76 nM
- Max Stim (%) [15]: 251%
- EC50 (nM), stimulation of [35S]GTPγS binding [19]: 127 nM
- Max Stim (%) [19]: 206%

Now from value to substance:

- Ki [1]: 10 nM
Substance: DADLE (peptide)

- Ki [5]: 8 nM
Substance: Endomorphin 2 (peptide)

- Ki [27]: > 500 nM
- Ki [28]: > 500 nM
- Ki [2]: > 500 nM
- Ki [29]: > 500 nM
- Ki [30]: > 500 nM
- Ki [31]: > 500 nM
- Ki [6]: > 500 nM
- Ki [32]: > 500 nM
- Ki [1]: > 500 nM
Substance: [D-Pen^2, D-Pen^5]enkephalin (DPDPE) (peptide)
